Reference: paper doi:10.1101/684480

Columns and labels:
[1] = target: BCR-ABL with deleted FABD domain (human) (UniProt P11274); test: co-IP
[2] = target: BCR-ABL with deleted DH-PH domains (human) (UniProt P11274); test: co-IP
[3] = target: BCR-ABL with deleted IDR (human) (UniProt P11274); test: co-IP
BCR-ABL Y177F (human) [4] = target: BCR-ABL Y177F (human) (UniProt P11274); test: co-IP
[5] = target: kinase-dead BCR-ABL (K271H) (human) (UniProt P11274); test: native gel or EMSA
BCR-ABL Y177F (human) [6] = target: BCR-ABL Y177F (human) (UniProt P11274); test: native gel or EMSA
p190 BCR-ABL (human) = p190 BCR-ABL (human) (UniProt P11274); test: proximity ligation
[7] = target: BCR-ABL with deleted PH domain (human) (UniProt P11274); test: co-IP

p85a-PI3K, transfected (from UniProt P27986 1-724) (natural protein)
decrease of binding against BCR-ABL [1]: 40% | decrease of binding against BCR-ABL [2]: 80% | decrease of binding against BCR-ABL [3]: 70% | decrease of binding against BCR-ABL (BCR-ABL Y177F (human) [4]): 50%

GRB2 of NIH3T3 cells (from UniProt Q60631 1-217) (natural protein)
percent of GRB2 associated [5]: 30% | percent of GRB2 associated (BCR-ABL Y177F (human) [6]): 30%

B1: V5-tagged SHIP2 (enzyme)
chain: MASACGAPGPGGALGSQAPSWYHRDLSRAAAEELLARAGRDGSFLVRDSESVAGAFALCVLYQKHVHTYRILPDGEDFLAVQTSQGVPVRRFQTLGELIGLYAQPNQGLVCALLLPVEGEREPDPPDDRDASDGEDEKPPLPPRSGSTSISAPTGPSSPLPAPETPTAPAAESAPNGLSTVSHDYLKGSYGLDLEAVRGGASHLPHLTRTLATSCRRLHSEVDKVLSGLEILSKVFDQQSSPMVTRLLQQQNLPQTGEQELESLVLKLSVLKDFLSGIQKKALKALQDMSSTAPPAPQPSTRKAKTIPVQAFEVKLDVTLGDLTKIGKSQKFTLSVDVEGGRLVLLRRQRDSQEDWTTFTHDRIRQLIKSQRVQNKLGVVFEKEKDRTQRKDFIFVSARKREAFCQLLQLMKNKHSKQDEPDMISVFIGTWNMGSVPPPKNVTSWFTSKGLGKTLDEVTVTIPHDIYVFGTQENSVGDREWLDLLRGGLKELTDLDYRPIAMQSLWNIKVAVLVKPEHENRISHVSTSSVKTGIANTLGNKGAVGVSFMFNGTSFGFVNCHLTSGNEKTARRNQNYLDILRLLSLGDRQLNAFDISLRFTHLFWFGDLNYRLDMDIQEILNYISRKEFEPLLRVDQLNLEREKHKVFLRFSEEEISFPPTYRYERGSRDTYAWHKQKPTGVRTNVPSWCDRILWKSYPETHIICNSYGCTDDIVTSDHSPVFGTFEVGVTSQFISKKGLSKTSDQAYIEFESIEAIVKTASRTKFFIEFYSTCLEEYKKSFENDAQSSDNINFLKVQWSSRQLPTLKPILADIEYLQDQHLLLTVKSMDGYESYGECVVALKSMIGSTAQQFLTFLSHRGEETGNIRGSMKVRVPTERLGTRERLYEWISIDKDEAGAKSKAPSVSRGSQEPRSGSRKPAFTEASCPLSRLFEEPEKPPPTGRPPAPPRAAPREEPLTPRLKPEGAPEPEGVAAPPPKNSFNNPAYYVLEGVPHQLLPPEPPSPARAPVPSATKNKVAITVPAPQLGHHRHPRVGEGSSSDEESGGTLPPPDFPPPPLPDSAIFLPPSLDPLPGPVVRGRGGAEARGPPPPKAHPRPPLPPGPSPASTFLGEVASGDDRSCSVLQMAKTLSEVDYAPAGPARSALLPGPLELQPPRGLPSDYGRPLSFPPPRIRESIQEDLAEEAPCLQGGRASGLGEAGMSAWLRAIGLERYEEGLVHNGWDDLEFLSDITEEDLEEAGVQDPAHKRLLLDTLQLSK
interaction preserved with nilotinib, against active BCR-ABL (p190 BCR-ABL (human)): > 50%

B2: SHC1, endogenous (natural protein)
chain: MDLLPPKPKYNPLRNESLSSLEEGASGSTPPEELPSPSASSLGPILPPLPGDDSPTTLCSFFPRMSNLRLANPAGGRPGSKGEPGRAADDGEGIVGAAMPDSGPLPLLQDMNKLSGGGGRRTRVEGGQLGGEEWTRHGSFVNKPTRGWLHPNDKVMGPGVSYLVRYMGCVEVLQSMRALDFNTRTQVTREAISLVCEAVPGAKGATRRRKPCSRPLSSILGRSNLKFAGMPITLTVSTSSLNLMAADCKQIIANHHMQSISFASGGDPDTAEYVAYVAKDPVNQRACHILECPEGLAQDVISTIGQAFELRFKQYLRNPPKLVTPHDRMAGFDGSAWDEEEEEPPDHQYYNDFPGKEPPLGGVVDMRLREGAAPGAARPTAPNAQTPSHLGATLPVGQPVGGDPEVRKQMPPPPPCPGRELFDDPSYVNVQNLDKARQAVGGAGPPNPAINGSAPRDLFDMKPFEDALRVPPPPQSVSMAEQLRGEPWFHGKLSRREAEALLQLNGDFLVRESTTTPGQYVLTGLQSGQPKHLLLVDPEGVVRTKDHRFESVSHLISYHMDNHLPIISAGSELCLQQPVERKL
decrease of the interaction against BCR-ABL [7]: 70%
